# In PMC3432581 (Methods in molecular biology (Clifton, N.J.), 2011):
# B1: CCAAT/Enhancer Binding Protein α (C/EBPα) (natural protein, UniProt P05554 244-358, looked up)
# chain: GPGGSLKGLAGPHPDLRTGGGGGGGAGAGKAKKSVDKNSNEYRVRRERNNIAVRKSRDKAKQRNVETQQKVLELTSDNDRLRKRVEQLSRELDTLRGIFRQLPESSLVKAMGNCA
# Molecular target: the molecule itself
# Assay: FRET or BRET
protein,measurement,value
B1,BRET ratio (Y ÷ B),0.39
